Columns and labels:
EGFR-L858R = biological target: T1, EGFR-L858R (Homo sapiens, UniProt P00533, L858R); assay: MaMTH EGFR-interactor screen, lentiviral preys against EGFR-L858R bait (interaction score); assay type: cell-based; settings: MaMTH interaction score of prey with EGFR-L858R bait
T1 construct: with the advantage of testing full-length integral membrane proteins; (GGGGS)2 linker-Cub (human ubiquitin aa 35-76)-GAL4(1-147)-mNFkB(364-550) (C); expressed in transfected cells
In short: (§1)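 Interaction score is the luciferase fold-change versus averaged negative controls (Fabp5, Pex19, Pex7, GABBR2), with >1 called interacting. Luciferase was measured 24 h after triplicate bait transfection. This followed single-copy prey transduction (MOI ~0.3-0.4) of GAL4UAS-luciferase HEK293T cells and ≥48 h puromycin selection.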

EGFR-Wt [1] = biological target: T2, EGFR-Wt (Homo sapiens, UniProt P00533); assay: MaMTH EGFR-interactor screen, lentiviral preys against EGFR-wildtype bait (interaction score); assay type: cell-based; settings: MaMTH interaction score of prey with EGFR-Wt bait, mean
T2 construct: with the advantage of testing full-length integral membrane proteins; (GGGGS)2 linker-Cub (human ubiquitin aa 35-76)-GAL4(1-147)-mNFkB(364-550) (C); expressed in transfected cells
In short: as §1

EGFR-Wt [2] = assay: as above; assay type: cell-based, human; settings: ratio of EGFR-Wt mean to EGFR-L858R mean interaction score
In short: as §1

EGFR-L858R mean (EGFR-L858R): 5.90
EGFR-Wt mean (EGFR-Wt [1]): 1.22
B1: SOCS6 (protein, UniProt O14544 1-535, looked up)
Suppressor of cytokine …: MKKISLKTLRKSFNLNKSKEETDFMVVQQPSLASDFGKDDSLFGSCYGKDMASCDINGEDEKGGKNRSKSESLMGTLKRRLSAKQKSKGKAGTPSGSSADEDTFSSSSAPIVFKDVRAQRPIRSTSLRSHHYSPAPWPLRPTNSEETCIKMEVRVKALVHSSSPSPALNGVRKDFHDLQSETTCQEQANSLKSSASHNGDLHLHLDEHVPVVIGLMPQDYIQYTVPLDEGMYPLEGSRSYCLDSSSPMEVSAVPPQVGGRAFPEDESQVDQDLVVAPEIFVDQSVNGLLIGTTGVMLQSPRAGHDDVPPLSPLLPPMQNNQIQRNFSGLTGTEAHVAESMRCHLNFDPNSAPGVARVYDSVQSSGPMVVTSLTEELKKLAKQGWYWGPITRWEAEGKLANVPDGSFLVRDSSDDRYLLSLSFRSHGKTLHTRIEHSNGRFSFYEQPDVEGHTSIVDLIEHSIRDSENGAFCYSRSRLPGSATYPVRLTNPVSRFMQVRSLQYLCRFVIRQYTRIDLIQKLPLPNKMKDYLQEKHY
Wt/L858R (EGFR-Wt [2]): 0.21
